Drawing on patent US20090053807 (published 2009), this text covers Kd and IC50 for 38 molecules.

Positions of bridges follow the written chain, without caps; N, C: chain ends. Non-standard residues stand in square brackets, D forms with d. No end group written: not given here. Hyp = O=C(O)[C@@H]1C[C@@H](O)CN1; Tic = O=C(O)[C@@H]1Cc2ccccc2CN1; Abu = CC[C@H](N)C(=O)O

The first test concerns the target T1, human insulin receptor (HIR) (human, UniProt P06213). The test is described as follows: competition.
With GSLDESFYDWFER [S396], the Kd – broadly, the constant that tells how readily two partners part at equilibrium – was more than 20 µM.

The next test deals with T1, human insulin receptor (HIR). Briefly: competition. The source holds these as a separate data set.
GSLDESFYDWFER [S396] came in with a Kd of more than 20 µM.

A further test shares this target. Briefly: competition. This is another data set of the same source.
The molecule ESFYDWFER [S401] showed a Kd of more than 20 µM.

Consider APVSTEELRWGALLFGQWAG [S283], for which the Kd is more than 20 µM.

For [dF][dH][dE][dN][dF][dY][dD][dW][dF][dV][dR][dQ][dV][dS][dK][dK] [S114], the Kd stood at 8.3 µM.

For the molecule PLRESRNFYDWFVQQLE [S366], the Kd came to 3.7 µM.

Regarding FYDWFKK [S166], the Kd is more than 20 µM.

HLSVGEELSWWVALLGQWAR [S282]: the Kd was more than 20 µM.

As for AFYDWFA [S181], the dissociation constant (Kd) was more than 20 µM.

RD[Hyp]FYDWEDD[dI] [S268]: binding was characterised by a dissociation constant (Kd) of 0.45 µM. This counts as sub-micromolar.

AFYEWFAKK [S214] registered a dissociation constant Kd of more than 20 µM.

The molecule FHENFYDWFVAQVSKK [S108] registered a Kd of 7.5 µM.

On to FHENFYDWAVRQVSKK [S223], for which the Kd was more than 20 µM.

The molecule DPFYQGLWEWLRESGEE [S289] yielded a Kd of more than 20 µM.

ESFYDWF [S403] came in with a Kd of more than 20 µM.

AFYDWFAKK [S167] gave a Kd of more than 20 µM.

AFYKWFAKK [S216]: the Kd is more than 20 µM.

The molecule ALEEEWAWVQVRSIRSGLPL [S284] showed a Kd of more than 20 µM.

On to FHENAYDWFVRQVSKK [S219], for which the Kd is more than 20 µM.

AFYGWFAKK [S215] yielded a Kd of more than 20 µM.

FYDWF [S165] gave a Kd of more than 20 µM.

Molecule HPTSKEIYAKLLK [S122] had a Kd of 93 µM. This lies in the double-digit micromolar range.

WFGYAWLS [S317] came in with a dissociation constant (Kd) of more than 20 µM.

The molecule GSLDESFYDWFE [S397] returned a Kd of more than 20 µM.

As to [Abu]CLEE[dW]GASL[Tic]QCSG (disulfide 2-13 (inferred)) [S266], the equilibrium dissociation constant (Kd) is more than 20 µM.

GSLDESFYDWFER [S396] displayed a Kd of more than 20 µM.

Molecule FYDWFA [S183] returned a Kd of more than 20 µM.

AHENFYDWFVRQVSKK [S113] registered a dissociation constant (Kd) of 5.9 µM. This counts as single-digit micromolar.

GFREGQRWYWFVAQVT [S278] yielded a Kd of more than 20 µM.

The molecule FHENFADWFVRQVSKK [S220] registered a Kd of more than 20 µM.

As for SDGEYNAIELLS [S118], the Kd came to 2.4 µM.

On to Ac-FYDWF [S184], for which the dissociation constant (Kd) was more than 20 µM.

As for GSLDESFYDWF [S398], the Kd was more than 20 µM.

Consider FHENFYDAFVRQVSKK [S222], for which the Kd is more than 20 µM.

Molecule AFYDWF [S182] yielded a Kd of more than 20 µM.

Molecule AFYDWFAK [S180] returned a Kd of more than 20 µM.

As to ESFYDWFE [S402], the Kd is more than 20 µM.

In a further test the target is mIR (human, UniProt P06213). The test is described as follows: FP vs FITC-RP9.
With FHENFYDWFVQRVSKK [H2C (D117)], the IC50 (commonly the point on the concentration scale where inhibition reaches its midpoint) is 0.77 µM. This lies in the sub-micromolar range.

GSLDESFYDWFERQLGKK [S371 (RP9)]: 0.049 µM corresponded to half-maximal inhibition (IC50).

As to GGTVWPGYEWLRNA [E8 (D120)], the half-maximal inhibitory concentration (IC50) was more than 100 µM.
